One block for each binder: values may come before it. Starred links: 1 amine or outer side, 2 acyl side, 3 side chain; linkers in the order of their positions; H or OH if unused. Positions of bridges follow the written chain, without caps; N, C: chain ends. Non-standard residues stand in square brackets, D forms with d. No end group written: not given here. TATA = O=C(CC[*:1])N1CN(C(=O)CC[*:2])CN(C(=O)CC[*:3])C1; Phe(4-guanidino) = N=C(N)Nc1ccc(C[C@H](N)C(=O)O)cc1; hArg = N=C(N)NCCCC[C@H](N)C(=O)O; Agb = N=C(N)NCC[C@H](N)C(=O)O
Legend:
[1] = target: T1, human β-FXIIa (HFXIIAB; Molecular Innovations) (human, UniProt P00748 354-362; P00748 373-615, limits assumed); experiment: protease inhibition assay
T1 construct: domain: catalytic domain; Bought; also called human b-FXIIa; human FXIIa

[2] = target: T1, human β-FXIIa (HFXIIAB; Molecular …); experiment: protease inhibition assay, fluorogenic substrate

T1 sequence (P00748 373-615 limits assumed, one chain of several): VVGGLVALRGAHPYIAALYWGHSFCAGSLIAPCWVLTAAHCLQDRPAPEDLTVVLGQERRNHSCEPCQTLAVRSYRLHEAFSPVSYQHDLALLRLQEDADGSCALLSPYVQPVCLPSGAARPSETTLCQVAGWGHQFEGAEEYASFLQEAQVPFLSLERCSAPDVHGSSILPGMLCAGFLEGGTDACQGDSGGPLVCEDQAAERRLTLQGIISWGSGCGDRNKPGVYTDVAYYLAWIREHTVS

B2: peptide 7 (peptide 2, Phe3 to valine) (peptide)
peptide: RCVRLPCRQLRCRW-NH2
modifications: linker 2-7-12 via TATA; N-terminus assumed
SMILES: CC(C)C[C@@H]1NC(=O)[C@H](CCC(N)=O)NC(=O)[C@H](CCCNC(=N)N)NC(=O)[C@@H]2CSCCC(=O)N3CN(CN(C3)C(=O)CCSC[C@H](NC(=O)[C@@H](N)CCCNC(=N)N)C(=O)N[C@@H](C(C)C)C(=O)N[C@@H](CCCNC(=N)N)C(=O)N[C@@H](CC(C)C)C(=O)N3CCC[C@H]3C(=O)N2)C(=O)CCSC[C@@H](C(=O)N[C@@H](CCCNC(=N)N)C(=O)N[C@@H](Cc2c[nH]c3ccccc23)C(N)=O)NC(=O)[C@H](CCCNC(=N)N)NC1=O
notes: Number tied to residue by the order of the list
fold reduction of activity vs peptide 2 [1]: > 10 fold

B3: peptide 26 (peptide 2, Leu10 to isoleucine) (peptide)
peptide: RCFRLPCRQIRCRW-NH2
modifications: linker 2-7-12 via TATA; N-terminus assumed
SMILES: CC[C@H](C)[C@@H]1NC(=O)[C@H](CCC(N)=O)NC(=O)[C@H](CCCNC(=N)N)NC(=O)[C@@H]2CSCCC(=O)N3CN(CN(C3)C(=O)CCSC[C@H](NC(=O)[C@@H](N)CCCNC(=N)N)C(=O)N[C@@H](Cc3ccccc3)C(=O)N[C@@H](CCCNC(=N)N)C(=O)N[C@@H](CC(C)C)C(=O)N3CCC[C@H]3C(=O)N2)C(=O)CCSC[C@@H](C(=O)N[C@@H](CCCNC(=N)N)C(=O)N[C@@H](Cc2c[nH]c3ccccc23)C(N)=O)NC(=O)[C@H](CCCNC(=N)N)NC1=O
fold reduction of activity vs peptide 2 [1]: 8 fold

B4: peptide 8 (peptide 2, Phe3 to isoleucine) (peptide)
peptide: RCIRLPCRQLRCRW-NH2
modifications: linker 2-7-12 via TATA; N-terminus assumed
SMILES: CC[C@H](C)[C@@H]1NC(=O)[C@@H](NC(=O)[C@@H](N)CCCNC(=N)N)CSCCC(=O)N2CN3CN(C2)C(=O)CCSC[C@H](NC(=O)[C@@H]2CCCN2C(=O)[C@H](CC(C)C)NC(=O)[C@H](CCCNC(=N)N)NC1=O)C(=O)N[C@@H](CCCNC(=N)N)C(=O)N[C@@H](CCC(N)=O)C(=O)N[C@@H](CC(C)C)C(=O)N[C@@H](CCCNC(=N)N)C(=O)N[C@H](C(=O)N[C@@H](CCCNC(=N)N)C(=O)N[C@@H](Cc1c[nH]c2ccccc12)C(N)=O)CSCCC3=O
notes: as for B2
fold reduction of activity vs peptide 2 [1]: > 10 fold

B5: peptide 11 (peptide 2, Leu5 to valine) (peptide)
peptide: RCFRVPCRQLRCRW-NH2
modifications: linker 2-7-12 via TATA; N-terminus assumed
SMILES: CC(C)C[C@@H]1NC(=O)[C@H](CCC(N)=O)NC(=O)[C@H](CCCNC(=N)N)NC(=O)[C@@H]2CSCCC(=O)N3CN(CN(C3)C(=O)CCSC[C@H](NC(=O)[C@@H](N)CCCNC(=N)N)C(=O)N[C@@H](Cc3ccccc3)C(=O)N[C@@H](CCCNC(=N)N)C(=O)N[C@@H](C(C)C)C(=O)N3CCC[C@H]3C(=O)N2)C(=O)CCSC[C@@H](C(=O)N[C@@H](CCCNC(=N)N)C(=O)N[C@@H](Cc2c[nH]c3ccccc23)C(N)=O)NC(=O)[C@H](CCCNC(=N)N)NC1=O
fold reduction of affinity vs peptide 2 [1]: > 50 fold

B6: peptide 21 (peptide 2, Gln9 to aspartate) (peptide)
peptide: RCFRLPCRDLRCRW-NH2
modifications: linker 2-7-12 via TATA; N-terminus assumed
SMILES: CC(C)C[C@@H]1NC(=O)[C@H](CC(=O)O)NC(=O)[C@H](CCCNC(=N)N)NC(=O)[C@@H]2CSCCC(=O)N3CN(CN(C3)C(=O)CCSC[C@H](NC(=O)[C@@H](N)CCCNC(=N)N)C(=O)N[C@@H](Cc3ccccc3)C(=O)N[C@@H](CCCNC(=N)N)C(=O)N[C@@H](CC(C)C)C(=O)N3CCC[C@H]3C(=O)N2)C(=O)CCSC[C@@H](C(=O)N[C@@H](CCCNC(=N)N)C(=O)N[C@@H](Cc2c[nH]c3ccccc23)C(N)=O)NC(=O)[C@H](CCCNC(=N)N)NC1=O
fold reduction of activity vs peptide 2 [1]: 54 fold

B7: peptide 12 (peptide 2, Leu5 to isoleucine) (peptide)
peptide: RCFRIPCRQLRCRW-NH2
modifications: linker 2-7-12 via TATA; N-terminus assumed
SMILES: CC[C@H](C)[C@@H]1NC(=O)[C@H](CCCNC(=N)N)NC(=O)[C@H](Cc2ccccc2)NC(=O)[C@@H](NC(=O)[C@@H](N)CCCNC(=N)N)CSCCC(=O)N2CN3CN(C2)C(=O)CCSC[C@H](NC(=O)[C@@H]2CCCN2C1=O)C(=O)N[C@@H](CCCNC(=N)N)C(=O)N[C@@H](CCC(N)=O)C(=O)N[C@@H](CC(C)C)C(=O)N[C@@H](CCCNC(=N)N)C(=O)N[C@H](C(=O)N[C@@H](CCCNC(=N)N)C(=O)N[C@@H](Cc1c[nH]c2ccccc12)C(N)=O)CSCCC3=O
fold reduction of affinity vs peptide 2 [1]: > 50 fold

B9: peptide 38 (peptide 2, Arg4 to homolysine) (peptide)
peptide: H-RCF[homolysine]LPCRQLRCRW-NH2
modifications: linker 2-7-12 via TATA
fold reduction of affinity vs peptide 2 [1]: ≥ 5 fold

Results, then the binder that gave them:

fold reduction of affinity vs peptide 2 [1]: ≥ 5 fold
B1: peptide 41 (peptide 2, Arg4 to 4-guanidinophenylalanine) (peptide)
peptide: RCF[Phe(4-guanidino)]LPCRQLRCRW-NH2
modifications: linker 2-7-12 via TATA; N-terminus assumed
SMILES: CC(C)C[C@@H]1NC(=O)[C@H](CCC(N)=O)NC(=O)[C@H](CCCNC(=N)N)NC(=O)[C@@H]2CSCCC(=O)N3CN(CN(C3)C(=O)CCSC[C@H](NC(=O)[C@@H](N)CCCNC(=N)N)C(=O)N[C@@H](Cc3ccccc3)C(=O)N[C@@H](Cc3ccc(NC(=N)N)cc3)C(=O)N[C@@H](CC(C)C)C(=O)N3CCC[C@H]3C(=O)N2)C(=O)CCSC[C@@H](C(=O)N[C@@H](CCCNC(=N)N)C(=O)N[C@@H](Cc2c[nH]c3ccccc23)C(N)=O)NC(=O)[C@H](CCCNC(=N)N)NC1=O
notes: as for B2

fold reduction of affinity vs peptide 2 [1]: ≥ 5 fold
B8: peptide 39 (peptide 2, Arg4 to homoarginine) (peptide)
peptide: H-RCF[hArg]LPCRQLRCRW-NH2
modifications: linker 2-7-12 via TATA
notes: as for B2

fold reduction of affinity vs peptide 2 [1]: ≥ 5 fold
B10: peptide 40 (peptide 2, Arg4 to norarginine) (peptide)
peptide: RCF[Agb]LPCRQLRCRW-NH2
modifications: linker 2-7-12 via TATA
notes: as for B2

fold reduction of affinity vs peptide 1 [1]: > 5 fold
B11: peptide 64 (FXII618, Arg1 to isoleucine) (peptide)
peptide: ICFRLPCRQLRCR-NH2
modifications: linker 2-7-12 via TATA; N-terminus assumed
SMILES: CC[C@H](C)[C@H](N)C(=O)N[C@H]1CSCCC(=O)N2CN3CN(C2)C(=O)CCSC[C@H](NC(=O)[C@@H]2CCCN2C(=O)[C@H](CC(C)C)NC(=O)[C@H](CCCNC(=N)N)NC(=O)[C@H](Cc2ccccc2)NC1=O)C(=O)N[C@@H](CCCNC(=N)N)C(=O)N[C@@H](CCC(N)=O)C(=O)N[C@@H](CC(C)C)C(=O)N[C@@H](CCCNC(=N)N)C(=O)N[C@H](C(=O)N[C@@H](CCCNC(=N)N)C(N)=O)CSCCC3=O
notes: as for B2

Ki [2]: 27.4 nM
B12: peptide 67 (FXII618, Arg1 to lysine) (peptide)
peptide: KCFRLPCRQLRCR-NH2
modifications: linker 2-7-12 via TATA; N-terminus assumed
SMILES: CC(C)C[C@@H]1NC(=O)[C@H](CCC(N)=O)NC(=O)[C@H](CCCNC(=N)N)NC(=O)[C@@H]2CSCCC(=O)N3CN(CN(C3)C(=O)CCSC[C@H](NC(=O)[C@@H](N)CCCCN)C(=O)N[C@@H](Cc3ccccc3)C(=O)N[C@@H](CCCNC(=N)N)C(=O)N[C@@H](CC(C)C)C(=O)N3CCC[C@H]3C(=O)N2)C(=O)CCSC[C@@H](C(=O)N[C@@H](CCCNC(=N)N)C(N)=O)NC(=O)[C@H](CCCNC(=N)N)NC1=O

fold reduction of affinity vs peptide 1 [1]: > 5 fold
B13: peptide 66 (FXII618, Arg1 to alanine) (peptide)
peptide: ACFRLPCRQLRCR-NH2
modifications: linker 2-7-12 via TATA; N-terminus assumed
SMILES: CC(C)C[C@@H]1NC(=O)[C@H](CCC(N)=O)NC(=O)[C@H](CCCNC(=N)N)NC(=O)[C@@H]2CSCCC(=O)N3CN(CN(C3)C(=O)CCSC[C@@H](C(=O)N[C@@H](CCCNC(=N)N)C(N)=O)NC(=O)[C@H](CCCNC(=N)N)NC1=O)C(=O)CCSC[C@H](NC(=O)[C@H](C)N)C(=O)N[C@@H](Cc1ccccc1)C(=O)N[C@@H](CCCNC(=N)N)C(=O)N[C@@H](CC(C)C)C(=O)N1CCC[C@H]1C(=O)N2
notes: as for B2

fold reduction of affinity vs FXII618 [1]: ~200 fold
B14: peptide 87 (FXII618, Leu10 to glycine) (peptide)
peptide: RCFRLPCRQGRCR-NH2
modifications: linker 2-7-12 via TATA; N-terminus assumed
SMILES: CC(C)C[C@@H]1NC(=O)[C@H](CCCNC(=N)N)NC(=O)[C@H](Cc2ccccc2)NC(=O)[C@@H](NC(=O)[C@@H](N)CCCNC(=N)N)CSCCC(=O)N2CN3CN(C2)C(=O)CCSC[C@H](NC(=O)[C@@H]2CCCN2C1=O)C(=O)N[C@@H](CCCNC(=N)N)C(=O)N[C@@H](CCC(N)=O)C(=O)NCC(=O)N[C@@H](CCCNC(=N)N)C(=O)N[C@H](C(=O)N[C@@H](CCCNC(=N)N)C(N)=O)CSCCC3=O

fold reduction of affinity vs peptide 1 [1]: > 5 fold
B15: peptide 65 (FXII618, Arg1 to valine) (peptide)
peptide: VCFRLPCRQLRCR-NH2
modifications: linker 2-7-12 via TATA; N-terminus assumed
SMILES: CC(C)C[C@@H]1NC(=O)[C@H](CCC(N)=O)NC(=O)[C@H](CCCNC(=N)N)NC(=O)[C@@H]2CSCCC(=O)N3CN(CN(C3)C(=O)CCSC[C@H](NC(=O)[C@@H](N)C(C)C)C(=O)N[C@@H](Cc3ccccc3)C(=O)N[C@@H](CCCNC(=N)N)C(=O)N[C@@H](CC(C)C)C(=O)N3CCC[C@H]3C(=O)N2)C(=O)CCSC[C@@H](C(=O)N[C@@H](CCCNC(=N)N)C(N)=O)NC(=O)[C@H](CCCNC(=N)N)NC1=O
notes: as for B2

fold reduction of affinity vs FXII618 [1]: ~200 fold
B16: peptide 85 (FXII618, Gln9 to glycine) (peptide)
peptide: RCFRLPCRGLRCR-NH2
modifications: linker 2-7-12 via TATA; N-terminus assumed
SMILES: CC(C)C[C@@H]1NC(=O)CNC(=O)[C@H](CCCNC(=N)N)NC(=O)[C@@H]2CSCCC(=O)N3CN(CN(C3)C(=O)CCSC[C@H](NC(=O)[C@@H](N)CCCNC(=N)N)C(=O)N[C@@H](Cc3ccccc3)C(=O)N[C@@H](CCCNC(=N)N)C(=O)N[C@@H](CC(C)C)C(=O)N3CCC[C@H]3C(=O)N2)C(=O)CCSC[C@@H](C(=O)N[C@@H](CCCNC(=N)N)C(N)=O)NC(=O)[C@H](CCCNC(=N)N)NC1=O

— patent US20180118786A1 (ECOLE POLYTECHNIQUE FEDERALE DE LAUSANNE EPFL, published 2018)
